Test results as given in article PMC11068011 (Science Advances, 2024).

Biological target: T1, Recombinant p47-GST (human, UniProt Q9UNZ2 1-370)
T1 construct: p47 (NSFL1C), recombinant, bought (Novus H00055968-P01); source: bought: Novus, H00055968-P01, purified from wheat germ
T1 sequence (looked up): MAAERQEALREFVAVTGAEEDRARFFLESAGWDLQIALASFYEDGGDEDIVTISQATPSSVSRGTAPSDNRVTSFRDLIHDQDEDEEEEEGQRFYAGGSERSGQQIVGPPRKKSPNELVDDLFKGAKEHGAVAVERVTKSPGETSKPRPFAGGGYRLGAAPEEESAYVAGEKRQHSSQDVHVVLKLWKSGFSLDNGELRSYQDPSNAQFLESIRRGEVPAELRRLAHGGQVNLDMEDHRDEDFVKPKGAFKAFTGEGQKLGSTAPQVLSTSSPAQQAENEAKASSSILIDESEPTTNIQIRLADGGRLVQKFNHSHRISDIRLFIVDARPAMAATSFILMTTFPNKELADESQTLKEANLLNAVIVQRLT
Assay: pull-down; In vitro binding assay: 1 μg p47-GST and 2 μg p37 (WT or SHP), with or without 2 μg purified VCP, 1 hour at 4°C, then glutathione beads 1 hour; 25 mM Hepes pH 7.4, 150 mM NaCl, 0.01% Triton X-100, 5% glycerol
Conditions: both partners purified

- binding result: binds
B1: purified WT p37 (natural protein, human, UniProt Q14CS0 1-331, looked up)
chain: MAEGGGPEPGEQERRSSGPRPPSARDLQLALAELYEDEVKCKSSKSNRPKATVFKSPRTPPQRFYSSEHEYSGLNIVRPSTGKIVNELFKEAREHGAVPLNEATRASGDDKSKSFTGGGYRLGSSFCKRSEYIYGENQLQDVQILLKLWSNGFSLDDGELRPYNEPTNAQFLESVKRGEIPLELQRLVHGGQVNLDMEDHQDQEYIKPRLRFKAFSGEGQKLGSLTPEIVSTPSSPEEEDKSILNAVVLIDDSVPTTKIQIRLADGSRLIQRFNSTHRILDVRNFIVQSRPEFAALDFILVTSFPNKELTDESLTLLEADILNTVLLQQLK
notes: p37 (UBXN2B), human, wild type, from pGEX-6P-1 p37; also called p37 WT; p37WT; source: E. coli Rosetta 2 BL21 (DE3), purified (glutathione sepharose, eluted by PreScission cleavage)
